From PMC4316771 come the findings set out here.

Assay [1] concerns the target FcRn-p3 (human FcRn fused to the amino terminal part of the bacteriophage p3 protein and the CVDE protein) (human) (UniProt P55899). The assay is described as follows: ELISA; phage-ELISA at pH 6.0: FcRn-p3 coated on Maxisorp plates (0.25 μg/well); phage-Fc supernatants diluted 1/2 and 1/4 in P6 (100 mM sodium phosphate, 50 mM NaCl, pH 6.0) with 5% skimmed milk and 0.1% Tween-20; 2 h at 37°C; bound phages detected with HRP anti-M13 antibody; results as ratios of signals. In general terms: An ELISA detects its analyte on a solid surface through an enzyme-linked reagent.

For assay [2], the target named is soluble human FcRn (human) (UniProt P55899). The experiment in a line: SPR; BIAcore X100, CM5 chip, recombinant human FcRn immobilised; IgG 1-200 nM flowed at 10 μl/min, 25°C, 50 mM sodium phosphate pH 6.0, 150 mM NaCl, 0.02% NaN3, 0.01% Tween-20; steady-state affinity model. On the technique in general: SPR reads the build-up and loss of mass on a sensor chip optically.

For assay [3], the target named is human complement C1q. The assay is described as follows: ELISA; C1q (0.5 μg/well) or FcγRIIIA-V158 (0.1 μg/well) coated on Maxisorp plates, FcγRIIA-R131 (0.1 μg/well) or FcγRIIB (0.4 μg/well) on nickel chelate plates; IgG in HEK293-F supernatants aggregated with HRP F(ab')2 goat anti-human F(ab')2, 0.5 μg/ml (0.25 μg/ml for FcγRIIIA-V158) in PBS, 1 h at 30°C; results as ratio variant/WT.

Assay [4] deals with human FcγRIIA-R131 (human). Described as above.
Assay [5] addresses human FcγRIIB (human) (UniProt P31994). Described as above.
UniProt P31994, sequence (P31994 43-217): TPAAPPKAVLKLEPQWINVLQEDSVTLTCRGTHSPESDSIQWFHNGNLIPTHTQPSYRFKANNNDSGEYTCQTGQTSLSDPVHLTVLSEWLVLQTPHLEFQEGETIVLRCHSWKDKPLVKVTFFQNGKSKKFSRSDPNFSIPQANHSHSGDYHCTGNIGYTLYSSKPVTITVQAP
Assay [6] addresses human FcγRIIIA-V158 (human). The assay is described as above.
Assay [7] deals with FcRn-p3 (human FcRn fused to the amino terminal part of the bacteriophage p3 protein and the CVDE protein) (human) (UniProt P55899). The experiment in a line: ELISA; FcRn-p3 (0.1 μg/well) coated on Maxisorp plates in P6 (pH 6.0); IgG in HEK293-F supernatants aggregated with HRP F(ab')2 goat anti-human F(ab')2, diluted in P6 to 0.0375 μg/ml, 1 h at 30°C; results as ratio variant/WT.

In the case of “Fc variant Fc-QL (phage-displayed Fc 226-447) (domain or fragment)”, the phage-ELISA ratio/Fc-WT in assay [1] worked out at 3.2.
“Fc variant Fc-YTE (phage-displayed Fc 226-447) (domain or fragment)”: in assay [1], the phage-ELISA ratio/Fc-WT is 3.5.
What is called Kd is the constant that tells how readily two partners part at equilibrium. For the substance “anti-CD20 IgG1 IgG-WT (produced in YB2/0 cells) (antibody)”, the dissociation constant (Kd) in assay [2] worked out at 0.101 µM.
Turning to “anti-CD20 IgG1 variant IgG-LS (produced in HEK293-F cells) (antibody)”, the ELISA ratio variant/WT in assay [3] was determined as 2.39; in assay [4] it was 2.52; in assay [5], 0.97; in assay [6] it was 1.3; in assay [7], 4.46.
As for “anti-CD20 IgG1 variant IgG-QL (produced in HEK293-F cells) (antibody)”, the ELISA ratio variant/WT was 2.47 in assay [3]; 0.99 in assay [4]; 0.95 in assay [5]; 0.59 in assay [6]; 2.39 in assay [7].
As to “anti-CD20 IgG1 variant IgG-YTE (produced in HEK293-F cells) (antibody)”, the ELISA ratio variant/WT in assay [3] is 0.64; in assay [4], 0.27; in assay [5], 0.42; in assay [6], 0.27; in assay [7] it was 2.06.
